From patent US20240327504A1 (MABLOC, published 2024)

Molecular target: SARS-CoV-2 Spike, WT (SARS-CoV-2, UniProt P0DTC2 14-1273)
Assay: cell-based or functional assay

B1: MR22950 antibody (antibody, V domains shown)
VH: QLQLQESGPGLVKPSEPLSLTCAVSGGFIGTNWWTWIRQPPGKGLEWIGRISGSVGSTSYNPSLKSRVTISRDTSKNQFSLNLNSLTAADTAVYYCAREGRLDTLDWGQGVLVIVSS
VL: QSVLTQPPSASEAARKSVTISCSGSSSNIGSYSVSWYQQFPGTPPKLLIYFNDQRASGVSDRFSGSKSGTSASLAISGLQTEDEADYYCAGWDDSLNGVLFGGGTRLTVLG
- Neut50: 6 ng/mL
